Literature values, collected in article PMC8256087.

Biological target: FtsY (Escherichia coli) (UniProt P10121)
Sequence (P10121 2-497): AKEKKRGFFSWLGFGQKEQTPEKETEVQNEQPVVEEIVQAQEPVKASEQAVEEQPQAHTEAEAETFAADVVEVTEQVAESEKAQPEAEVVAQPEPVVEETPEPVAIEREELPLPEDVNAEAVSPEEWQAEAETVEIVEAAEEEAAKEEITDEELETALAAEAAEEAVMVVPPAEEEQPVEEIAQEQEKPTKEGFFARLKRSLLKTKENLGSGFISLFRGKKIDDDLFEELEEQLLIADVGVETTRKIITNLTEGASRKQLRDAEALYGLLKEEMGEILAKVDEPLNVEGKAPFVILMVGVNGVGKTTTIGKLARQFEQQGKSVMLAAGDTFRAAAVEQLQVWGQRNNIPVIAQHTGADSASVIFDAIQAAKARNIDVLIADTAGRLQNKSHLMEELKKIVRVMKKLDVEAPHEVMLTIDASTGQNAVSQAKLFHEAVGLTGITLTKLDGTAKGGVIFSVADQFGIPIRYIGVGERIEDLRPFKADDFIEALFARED

SecYEG translocon, sequence (P0AGA2 whole entry): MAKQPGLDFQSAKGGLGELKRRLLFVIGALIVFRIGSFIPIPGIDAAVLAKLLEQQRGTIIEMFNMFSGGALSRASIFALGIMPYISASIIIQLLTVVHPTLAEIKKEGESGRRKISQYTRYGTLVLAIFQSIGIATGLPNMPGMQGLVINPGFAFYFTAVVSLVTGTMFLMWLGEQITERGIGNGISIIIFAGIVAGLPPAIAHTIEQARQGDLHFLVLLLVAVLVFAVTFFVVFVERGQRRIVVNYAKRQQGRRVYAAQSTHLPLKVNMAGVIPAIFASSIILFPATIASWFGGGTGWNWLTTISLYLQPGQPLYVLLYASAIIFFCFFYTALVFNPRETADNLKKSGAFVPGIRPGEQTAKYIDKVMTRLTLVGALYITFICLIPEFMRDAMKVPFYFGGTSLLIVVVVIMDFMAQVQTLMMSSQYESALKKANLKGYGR
SecYEG translocon, sequence (P0AG96 whole entry, further chain): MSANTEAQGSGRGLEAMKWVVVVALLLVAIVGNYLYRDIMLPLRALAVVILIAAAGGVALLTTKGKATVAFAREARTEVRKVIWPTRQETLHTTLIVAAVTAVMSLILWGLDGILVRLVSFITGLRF
SecYEG translocon, sequence (P0AG99 whole entry, further chain): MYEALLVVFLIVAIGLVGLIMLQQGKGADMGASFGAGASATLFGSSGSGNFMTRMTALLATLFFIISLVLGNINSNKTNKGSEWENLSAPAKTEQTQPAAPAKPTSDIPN

Kd: 200 nM
Substance: SecYEG translocon (from UniProt P0AGA2)
